Test [1] deals with FcγRIIIa on human effector cells of a FcγRIIIa Phe/Val^158 heterozygote donor (human) (UniProt P08637). Briefly: cell-based or functional assay.
Test [2] has as its target FcγRIIIa on human effector cells of a FcγRIIIa Phe/Phe^158 homozygote donor (human) (UniProt P08637). The experiment in a line: cell-based or functional assay.

Regarding MDX-060 LEX (antibody), the ADCC, maximal percent cell lysis of L540 target cells amounted to 31% in test [1] and 27% in test [2].

Turning to MDX-060 CHO (antibody), the ADCC, maximal percent cell lysis of L540 target cells in test [1] was 31%; in test [2] it was 15%.

As to MDX-060 LEX^Opt (antibody), in test [1], the ADCC EC50, times lower than MDX-060 CHO was 5 fold and the ADCC EC50, times lower than MDX-060 LEX was determined as 3 fold.

The record behind these values is US20080060092A1.
